The assay addresses HA-Mdm2 (human) (UniProt Q00987).

Sequence of HA-Mdm2 (human) (Q00987 whole entry): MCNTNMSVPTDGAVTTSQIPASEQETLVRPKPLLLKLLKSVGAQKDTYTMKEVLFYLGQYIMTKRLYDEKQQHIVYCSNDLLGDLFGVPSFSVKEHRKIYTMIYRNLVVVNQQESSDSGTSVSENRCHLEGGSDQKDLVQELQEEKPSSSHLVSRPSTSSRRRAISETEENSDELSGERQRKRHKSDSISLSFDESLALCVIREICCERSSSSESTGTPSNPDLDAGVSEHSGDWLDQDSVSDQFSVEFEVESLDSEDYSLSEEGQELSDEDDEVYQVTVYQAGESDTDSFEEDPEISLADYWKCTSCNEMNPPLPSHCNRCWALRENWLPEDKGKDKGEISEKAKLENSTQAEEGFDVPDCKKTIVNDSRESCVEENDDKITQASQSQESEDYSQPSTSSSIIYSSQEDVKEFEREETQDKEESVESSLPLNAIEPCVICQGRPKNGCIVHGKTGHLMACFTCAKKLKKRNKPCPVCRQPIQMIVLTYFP

B1: FLAG-MdmX (natural protein)
chain: MTSFSTSAQCSTSDSACRISPGQINQVRPKLPLLKILHAAGAQGEMFTVKEVMHYLGQYIMVKQLYDQQEQHMVYCGGDLLGELLGRQSFSVKDPSPLYDMLRKNLVTLATATTDAAQTLALAQDHSMDIPSQDQLKQSAEESSTSRKRTTEDDIPTLPTSEHKCIHSREDEDLIENLAQDETSRLDLGFEEWDVAGLPWWFLGNLRSNYTPRSNGSTDLQTNQDVGTAIVSDTTDDLWFLNESVSEQLGVGIKVEAADTEQTSEEVGKVSDKKVIEVGKNDDLEDSKSLSDDTDVEVTSEDEWQCTECKKFNSPSKRYCFRCWALRKDWYSDCSKLTHSLSTSDITAIPEKENEGNDVPDCRRTISAPVVRPKDAYIKKENSKLFDPCNSVEFLDLAHSSESQETISSMGEQLDNLSEQRTDTENMEDCQNLLKPCSLCEKRPRDGNIIHGRTGHLVTCFHCARRLKKAGASCPICKKEIQLVIKVFIA
For the molecule B1, the FRET (HTRF) signal of MdmX-stimulated Mdm2 autoubiquitination in vitro, against the baseline without MdmX; rises with MdmX concentration and with reaction time worked out at 8 fold.
